Experimental data published in patent WO2013087874A1 (dated 2013).

Biological target: T1, ToxA-Holotoxin of Clostridium difficile (Clostridium difficile, UniProt P16154 1-2710)
T1 construct: also called Toxin A
Experiment: ELISA, monovalent VHH on coated antigen, anti-myc detection

T1 sequence (P16154 whole entry): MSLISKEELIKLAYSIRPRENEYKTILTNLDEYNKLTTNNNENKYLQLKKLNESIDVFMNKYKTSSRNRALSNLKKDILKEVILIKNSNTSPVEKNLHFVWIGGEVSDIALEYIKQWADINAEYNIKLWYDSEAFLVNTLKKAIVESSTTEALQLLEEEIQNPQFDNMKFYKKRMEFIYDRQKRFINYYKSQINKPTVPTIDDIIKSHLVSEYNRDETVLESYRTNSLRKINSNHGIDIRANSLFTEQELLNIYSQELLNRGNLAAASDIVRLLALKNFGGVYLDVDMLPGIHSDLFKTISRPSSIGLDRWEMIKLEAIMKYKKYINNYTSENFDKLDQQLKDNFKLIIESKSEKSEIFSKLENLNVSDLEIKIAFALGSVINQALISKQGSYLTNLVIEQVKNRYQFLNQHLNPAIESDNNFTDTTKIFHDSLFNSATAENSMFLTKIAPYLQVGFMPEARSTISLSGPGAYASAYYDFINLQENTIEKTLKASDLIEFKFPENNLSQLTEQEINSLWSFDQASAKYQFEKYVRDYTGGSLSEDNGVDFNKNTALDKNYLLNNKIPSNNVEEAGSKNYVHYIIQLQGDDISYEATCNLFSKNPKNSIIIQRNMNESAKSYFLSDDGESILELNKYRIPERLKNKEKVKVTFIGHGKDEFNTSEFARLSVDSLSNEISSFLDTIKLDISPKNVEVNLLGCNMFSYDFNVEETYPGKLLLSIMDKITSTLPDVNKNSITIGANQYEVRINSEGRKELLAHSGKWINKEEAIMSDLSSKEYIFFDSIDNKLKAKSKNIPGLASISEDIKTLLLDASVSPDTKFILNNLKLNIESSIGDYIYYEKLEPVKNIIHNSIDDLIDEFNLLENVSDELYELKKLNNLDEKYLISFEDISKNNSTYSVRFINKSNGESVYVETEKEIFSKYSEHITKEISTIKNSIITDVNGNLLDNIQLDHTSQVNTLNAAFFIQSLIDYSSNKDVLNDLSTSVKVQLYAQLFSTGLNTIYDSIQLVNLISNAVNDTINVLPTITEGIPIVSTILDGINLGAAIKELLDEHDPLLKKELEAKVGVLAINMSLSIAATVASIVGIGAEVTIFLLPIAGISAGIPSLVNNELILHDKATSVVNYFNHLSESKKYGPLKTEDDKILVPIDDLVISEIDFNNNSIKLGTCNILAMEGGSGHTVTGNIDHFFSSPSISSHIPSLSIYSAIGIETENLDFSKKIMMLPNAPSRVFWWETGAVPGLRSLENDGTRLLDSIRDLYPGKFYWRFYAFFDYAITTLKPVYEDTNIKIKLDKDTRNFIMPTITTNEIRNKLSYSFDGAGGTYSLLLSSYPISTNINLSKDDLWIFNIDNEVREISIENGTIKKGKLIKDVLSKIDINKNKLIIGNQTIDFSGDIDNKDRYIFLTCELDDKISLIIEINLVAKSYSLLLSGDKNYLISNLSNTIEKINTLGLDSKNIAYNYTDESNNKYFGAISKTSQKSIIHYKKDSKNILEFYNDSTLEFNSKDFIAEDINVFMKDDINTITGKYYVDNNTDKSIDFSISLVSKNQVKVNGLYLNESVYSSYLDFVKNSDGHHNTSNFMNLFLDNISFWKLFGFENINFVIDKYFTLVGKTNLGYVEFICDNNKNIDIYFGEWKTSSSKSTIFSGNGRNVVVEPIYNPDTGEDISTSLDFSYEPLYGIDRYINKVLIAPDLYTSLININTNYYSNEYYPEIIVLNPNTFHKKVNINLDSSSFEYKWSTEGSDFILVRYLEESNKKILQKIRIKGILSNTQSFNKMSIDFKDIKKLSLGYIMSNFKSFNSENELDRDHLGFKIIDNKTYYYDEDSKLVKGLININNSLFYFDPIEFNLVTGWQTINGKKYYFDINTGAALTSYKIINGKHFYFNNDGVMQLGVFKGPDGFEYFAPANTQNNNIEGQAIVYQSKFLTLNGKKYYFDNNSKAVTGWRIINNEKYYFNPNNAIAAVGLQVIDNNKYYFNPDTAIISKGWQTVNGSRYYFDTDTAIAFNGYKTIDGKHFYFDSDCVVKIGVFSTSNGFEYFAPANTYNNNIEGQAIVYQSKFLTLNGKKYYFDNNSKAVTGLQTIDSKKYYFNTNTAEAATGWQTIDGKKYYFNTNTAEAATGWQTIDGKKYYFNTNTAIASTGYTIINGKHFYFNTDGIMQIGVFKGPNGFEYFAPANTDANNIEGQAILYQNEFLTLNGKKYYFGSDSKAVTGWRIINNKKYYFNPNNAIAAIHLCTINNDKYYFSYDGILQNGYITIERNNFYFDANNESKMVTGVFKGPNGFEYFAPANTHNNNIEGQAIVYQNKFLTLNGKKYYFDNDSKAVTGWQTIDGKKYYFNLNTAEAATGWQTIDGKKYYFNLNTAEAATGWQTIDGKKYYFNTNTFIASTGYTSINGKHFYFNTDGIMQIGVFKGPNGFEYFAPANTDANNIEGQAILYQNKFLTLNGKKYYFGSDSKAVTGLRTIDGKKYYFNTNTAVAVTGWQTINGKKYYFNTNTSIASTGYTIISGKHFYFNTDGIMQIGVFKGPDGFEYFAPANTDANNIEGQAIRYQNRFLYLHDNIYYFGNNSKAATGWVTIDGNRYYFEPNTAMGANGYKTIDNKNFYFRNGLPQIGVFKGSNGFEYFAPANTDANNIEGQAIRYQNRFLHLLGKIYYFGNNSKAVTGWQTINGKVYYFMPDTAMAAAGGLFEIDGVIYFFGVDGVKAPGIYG

Row | Binder | binding result
1 | VHH S-20a (#2352, SEQ ID NO:11) (VHH) VHH: DVQLQASGGGLVQAGDSLRLSCSASGLTFSSYAMGWFRQAPGKEREFVAAISWANGGSTVYADPVKGRFTISRDNAKNTVYLQMNSLKPEDTAVYSCAAADQRVGYIEYYSGSSGKEYDYWGQGTQVTVSS | no binding (tested: 8-1000 ng VHH)
2 | VHH L-14 (#2622, SEQ ID NO:2) (VHH) VHH: DVQLQASGGGLVPAGGSLRLSCAASGHSFSSLDMAWFRQAPGREREFVAQISWSGSHTYYQDAVKGRFTISRDSAKNTGYLQMTNLKPEDTAVYYCAATYRPNTFTPAEYDYWGQGTQVTVSA | no binding (tested: 8-1000 ng VHH)
3 | VHH L-15a (#2169, SEQ ID NO:3) (VHH) VHH: DVQLQESGGGLVQAGGSLRLSCAASRSLRSIAVMGWFRQAPGKQREYVARITSGGYTDYADSVKGRFTIFDDSANNTVYLQMTSLKPEDTAVYHCAAGGFTEAYSGTYYPDSWGQGTQVTVSS | no binding (tested: 8-1000 ng VHH)
4 | VHH L+18a (#2173, SEQ ID NO:5) (VHH) VHH: DVQLQASGGGLVQAGGSMRLSCAASGFTFDEFAIGWFRQAPGKEREAVSCIRSSDGSTWYADSVKGRFTISSDNAKNTVTLRMNSLKPEDTADYTCAALGSGYGCSLFTTTVGMDYWGKGTLVTVSS | no binding (tested: 8-1000 ng VHH)
